Patent publication US20150274802A1
Residue numbers refer to the chain shown, from its start. Each block holds one binder with its values, some of them ahead of it. Square brackets hold non-standard residues; d marks the D form. Primed or numbered codes have the meaning given here. Ends that are not written are not given here. PEG4″ = 4-unit polyethylene glycol spacer; PEG8″ = 8-unit polyethylene glycol spacer

How the values were obtained:
Assay in all cases: cell-based or functional assay
[1] = biological target: type B insulin receptor, P06213
[2] = biological target: type A insulin receptor, P06213
type B insulin receptor = type B insulin receptor (UniProt P06213)
type A insulin receptor = type A insulin receptor (UniProt P06213)
[3] = biological target: human IGF-1 receptor (human) (UniProt P08069)

Binder: Ac-GPEHLCGAELVDALYLVCGDRGFY[PEG8″]K(PEG 20 kDa)[PEG4″]GIVDECCFRSCDLRRLENYCN (ligand, cysteine pairing not given here) [MIU-56: C8-PEG20K B^1(H5,Y16,L17)25-PEG8-K-PEG4-A^1(N18,N21)]
Phosphorylation (EC50), % IR-B [1]: 2%
% Insulin Activity (in vitro, assay not named) [2]: 14.8%
Phosphorylation (EC50), % IR-A [2]: 14.8%

B1: MIU-79 di-10K-SC: B1,A14-10K B^1(H5,10Y16L17R29)30-C^1des9-12-A^1(H8,K14,N18,21) (ligand)
chain: {PEG 10 kDa}-GPEHLCGAHLVDALYLVCGDRGFYFNKRTGYGSSSRRGIVDECCHRSCDLK(PEG 10 kDa)RLENYCN
modifications: ends and bridges not checked
% activity in vitro [1]: 0.2%
% activity in vitro [2]: 1.7%

B4: MIU-57: B1-PEG20K MIU-35 (ligand)
chain: {PEG 20 kDa}-GPEHLCGAHLVDALYLVCGDRGFYGYGSSSRRAPQTGIVDECCHRSCDLRRLENYCN
modifications: ends and bridges not checked
% (potency at the receptor, assay not named) [1]: 1.1%
% Insulin Activity (in vitro, assay not named) [1]: 1.1%
Phosphorylation (EC50), % IR-B [1]: 1.1%
% (potency at the receptor, assay not named) [2]: 4.5%
% Insulin Activity (in vitro, assay not named) [2]: 3.1%
Phosphorylation (EC50), % IR-A [2]: 4.5%

B5: MIU-35: B^1(H5,10Y16L17)25-C^1-A^1(H8N18,21) (ligand)
chain: GPEHLCGAHLVDALYLVCGDRGFYGYGSSSRRAPQTGIVDECCHRSCDLRRLENYCN
% (potency at the receptor, assay not named) [3]: 3.2%
% Insulin Activity (in vitro, assay not named) [3]: 3.2%
% (potency at the receptor, assay not named) (type B insulin receptor): 17.4%
% Insulin Activity (in vitro, assay not named) (type B insulin receptor): 17.4%
% (potency at the receptor, assay not named) (type A insulin receptor): 61.4%
% Insulin Activity (in vitro, assay not named) (type A insulin receptor): 61.4%

B6: B^1(A5H10Y16L17)25-C^1-A^1(H8N18N21) (ligand)
chain: B5 chain with H4A
% (potency at the receptor, assay not named) [3]: 2.5%
% (potency at the receptor, assay not named) (type B insulin receptor): 5.7%

B7: B^1(H5,10Y16L17)25-C^1-A^1(T8N18,21) (ligand)
chain: B5 chain with H44T
% (potency at the receptor, assay not named) [1]: 8.4%
% (potency at the receptor, assay not named) [2]: 20.4%

B8: B^1(H5,10Y16L17A24)25-C^1-A^1(H8N18,N21) (ligand)
chain: B5 chain with F23A
% (potency at the receptor, assay not named) [3]: 0.3%
% (potency at the receptor, assay not named) (type B insulin receptor): 0.4%
% (potency at the receptor, assay not named) (type A insulin receptor): 0.1%

B10: DP8Mut3KA14: B^1(H5,10Y16L17R29)30-C^1des9-12-A^1(H8,K14,N18,21) (ligand)
chain: GPEHLCGAHLVDALYLVCGDRGFYFNKRTGYGSSSRRGIVDECCHRSCDLKRLENYCN
% activity in vitro [1]: 12.6%
% activity in vitro [2]: 132%

Binder: GPEHLCGAHLVDALYLVCGDRGFYFNKKGIVDECCHRSCDLRRLENYCN (ligand) [DP3(SC): B^1(H5,10Y16L17K29)29-A^1(H8,N18,21)]
% activity in vitro [2]: 0.03%

B11: DP3(TC): B^1(H5,10Y16L17K29)29:A^1(H8,N18,21) (ligand)
chain 1: GPEHLCGAHLVDALYLVCGDRGFYFNKK
chain 2: GIVDECCHRSCDLRRLENYCN
% activity in vitro [1]: 33.1%
% activity in vitro [2]: 160%

B12: GE5W-B^1(A5H10Y16L17)25-C^1-A^1(H8N18N21) (ligand)
chain: GEEEEEWGPEALCGAHLVDALYLVCGDRGFYGYGSSSRRAPQTGIVDECCHRSCDLRRLENYCN
% (potency at the receptor, assay not named) [3]: 0.3%
% (potency at the receptor, assay not named) (type B insulin receptor): 2.3%
% (potency at the receptor, assay not named) (type A insulin receptor): 8.6%

More lines, now with the values ahead:

% activity in vitro [1]: 2.1%
% activity in vitro [2]: 6.4%
B2: di-10K-TC: B1,A14-10K B^1(H5,10Y16L17R29)29:A^1(H8K14N18,21) (ligand)
chain 1: {PEG 10 kDa}-GPEHLCGAHLVDALYLVCGDRGFYFNKR
chain 2: GIVDECCHRSCDLK(PEG 10 kDa)RLENYCN
modifications: ends and bridges not checked

% activity in vitro (type B insulin receptor): 3.2%
% activity in vitro (type A insulin receptor): 8.2%
B3: MIU-78 mono-20K-TC: B1-20K B^1(H5,10Y16L17K29)29:A^1(H8N18,21) (ligand)
chain 1: GPEHLCGAHLVDALYLVCGDRGFYFNKK
chain 2: GIVDECCHRSCDLRRLENYCN

% activity in vitro [1]: 16.7%
% activity in vitro [2]: 97.5%
B9: MIU-43 DP8Mut3: B^1(H5,10Y16L17R29)30-C^1des9-12-A^1(H8,N18,21) (ligand)
chain: B10 chain with K51R

% activity in vitro (type A insulin receptor): 0.1%
Binder: GPEHLCGAHLVDALYLVCGDRGFYFNKKGIVDECCHRSCDLRRLENYCN (ligand) [MIU-77 mono-20K-SC: B1-20K B^1(H5,10Y16L17K29)29-A^1(H8N18,21)]

% (potency at the receptor, assay not named) [1]: 0.7%
% (potency at the receptor, assay not named) [2]: 2.1%
B13: GE5W-B^1(H5,10Y16L17)25-C^1-A^1(A1H8N18,21) (ligand)
chain: B12 chain with A11H, G44A
